Holding throughout (assay): ITC; GppNHp-Rab35 (480 μM) injected in 2 μl aliquots into the C-terminal MICAL1 domain (60 μM) in the cell; 10 °C; 50 mM Tris pH 8, 150 mM NaCl, 2 mM MgCl2, 2 mM TCEP, 5% glycerol; one-site model
The target of experiment [1] is MICAL1^918–1067 mutant S1 (human) (UniProt Q8TDZ2).
Experiment [2] addresses MICAL1^879–1067 (tag cleaved, for ITC) (human) (UniProt Q8TDZ2).
The target of experiment [3] is MICAL1^918–1067 WT C-terminal domain (tag cleaved) (human) (UniProt Q8TDZ2).

Experimental findings from publication PMC5331220 are described below.

What is called stoichiometry N is the number of molecules, sites or subunits per partner or assembly. What is called Kd is a measure of binding affinity in units of concentration. Read a low Kd as higher affinity.

MICAL1^918–1067 WT C-terminal domain (tag cleaved) (human), sequence (Q8TDZ2 918-1067): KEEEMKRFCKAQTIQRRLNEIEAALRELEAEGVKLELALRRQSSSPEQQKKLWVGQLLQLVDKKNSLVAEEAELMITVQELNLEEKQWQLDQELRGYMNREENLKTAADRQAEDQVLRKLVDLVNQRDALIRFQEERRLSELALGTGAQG
MICAL1^879–1067 (tag cleaved, for ITC) (human), sequence (Q8TDZ2 879-1067): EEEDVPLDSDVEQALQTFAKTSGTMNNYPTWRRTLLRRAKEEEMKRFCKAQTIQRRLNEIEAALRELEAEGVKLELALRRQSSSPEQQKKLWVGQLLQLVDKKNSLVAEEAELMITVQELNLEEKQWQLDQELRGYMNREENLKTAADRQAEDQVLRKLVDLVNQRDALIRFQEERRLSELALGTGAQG

“Rab35 (recombinant, for ITC and competition; Rab35^1-199 taken as the likeliest construct) (from UniProt Q15286 1-199) (natural protein)”: the stoichiometry N in experiment [1] and in experiment [3] was 1 throughout. The Kd in experiment [2] worked out at 13 µM; in experiment [3] it was 6.4 µM.
